Experimental data as given in patent US8546353B2, “Compounds and combinations” (priority 2010, dated 2013).
“Also recorded” adds a separate entry of the source.

Tests used:
[1] = tested on: circulating hematopoietic progenitor cells (HPCs) in peripheral blood; experiment: Peripheral blood stem cell mobilization, colony forming unit (CFU) assay on peripheral blood mononuclear cells; type: in vivo, C57BL/6J mice
Protocol: (§1) Adult (8-10 weeks) female, age-matched C57BL/6J (Jackson stock nr 000664, the Charles River Laboratories) CD45.2 mice were used in the in vivo mobilization experiments. The acclimatization period was always at least 7 days before the experiments. The animals were individually identified by ear and tail numbering and were housed in a Scantainer (Scanbur A/S, Karlslunde, Denmark) in Makrolon III cages. The animal room temperature was 21±2° C. and humidity was between 40-60%. Lightning was artificial, 12 h light and 12 h dark. The mice were provided with irradiated fodder and normal tap water ad libitum. Average weight of all animals in the experiments was 18.8±1.5 g. No formal randomization or grouping was done. Animals were randomly allocated to the study groups. All animals were weighed before the first dosing and in the end of each study.
(§2) Sterile filtered PBS (pH 7.2) served as vehicle in all studies and was injected intravenously in the tail vein in similar volumes (50 or 100 μl) and time-points as the other test items within each study. Recombinant pegylated granulocyte-colony stimulatory factor (G-CSF), pegfilgrastim (Neulasta™, Amgen), with the stock concentration 10 mg/ml, was diluted immediately before the injections in sterile filtered PBS (pH 7.2) to yield a 0.25-0.5 mg/ml dosing solution. The animals obtained 25 μg pegfilgrastim (Neulasta™) subcutaneously at a dose volume of 50 or 100 μl on study day 0. The LMW hyaluronic acid derivatives HA and 6-O-S HA were prepared for injections into sterile filtered PBS in 5-10 mg/ml solutions and injected intravenously in the tail vein in dose volumes of 50 or 100 μl yielding 500 μg doses/mouse.
The LMW hyaluronic acid (HA) derivatives were tested for capability to mobilize hematopoietic stem and progenitor cells to peripheral blood after 500 μg i.v. injections at the following time-points: 4h, 1d, 2d, 3d and 5d post-injections. Repetitive dosing was tested with daily 500 μg i.v. injections and sampling was done either on experimental days 2 (after 3 doses) or 5 (after 6 doses) after the first injection on day 0. Abnormal clinical signs or mortality was not observed with the LMW HA derivatives with 500 μg doses. […]
Mononuclear cells were isolated by carefully overlaying 3 ml Ficoll-Paque® (GE Healthcare) with peripheral blood diluted 1:2 in phosphate buffered saline (PBS)-2 mM EDTA. […] Mononuclear cell yields were counted using a Bürker chamber.
(§3) Myeloid hematopoietic progenitor cells were further enumerated by the colony forming unit (CFU/CFC) assay. Progenitor cells that are restricted in their lineage potential and that have limited self-renewal capability can be detected in colony-forming cell (CFC) assays using semisolid media such as methylcellulose, agar or collagen. […]

[2] = tested on: hematopoietic progenitor cells (HPCs) in the bone marrow; experiment: CFU assay on bone marrow mononuclear cells; type: in vivo, C57BL/6J mice; settings: single 25 μg s.c. at day 0, samples at day 5, 1×10^5 mononuclear cells
Protocol: as §1, with “All animals were weighed before the first dosing and in the end of each study.” left out
as §3, with “collagen. Progenitors that read out in culture assays can either be multipotent, e.g. capable of generating progeny of multiple blood cell types, or restricted to one or two lineages, e.g. erythrocytes, granulocytes, monocyte/macrophages or platelets.” for “collagen.”

[3] = tested on: white blood cell (WBC) contents in peripheral blood; experiment: Leukocyte content in blood, automated blood cell counter Sysmex XT-2000i; type: in vivo, C57BL/6J mice; settings: single dose (HA derivatives 500 μg i.v.; pegfilgrastim 25 μg s.c.); 5 days (FIG. 2C)
Protocol: as §1
(§4) Sterile filtered PBS (pH 7.2) served as vehicle in all studies and was injected intravenously in the tail vein in similar volumes (50 or 100 μl) and time-points as the other test items within each study. […]
(§5) The leukocyte, erythrocyte and platelet contents were determined for all blood samples by automated blood cell counter Sysmex XT-2000i by diluting the mouse blood 1:4 with 0.9% NaCl.
(§6) Complete blood counts (numbers of white blood cells, mature red blood cells and platelets) of mouse peripheral blood were determined with automated blood cell counter.

[4] = tested on: red blood cell (RBC) contents in peripheral blood; experiment: Erythrocyte content in blood, automated blood cell counter Sysmex XT-2000i; type: in vivo, C57BL/6J mice; settings: 25 μg s.c.
Protocol: as §1, §4, §5, §6

spleen = experiment: Spleen weights after mobilization studies; type: in vivo; settings: 25 μg s.c.
Protocol: as §1
Sterile filtered PBS (pH 7.2) served as vehicle in all studies and was injected intravenously in the tail vein in similar volumes (50 or 100 μl) and time-points as the other test items within each study. Recombinant pegylated granulocyte-colony stimulatory factor (G-CSF), pegfilgrastim (Neulasta™, Amgen), with the stock concentration 10 mg/ml, was diluted immediately before the injections in sterile filtered PBS (pH 7.2) to yield a 0.25-0.5 mg/ml dosing solution. […]

[5] = tested on: hematopoietic cell populations of mouse peripheral blood; experiment: Immunophenotypic profiling of peripheral blood by flow cytometry; type: in vivo, C57BL/6J mice; settings: pegfilgrastim 25 μg s.c. −5 days
Protocol: as §1, §2
The LMW hyaluronic acid (HA) derivatives were tested for capability to mobilize hematopoietic stem and progenitor cells to peripheral blood after 500 μg i.v. injections at the following time-points: 4h, 1d, 2d, 3d and 5d post-injections. Repetitive dosing was tested with daily 500 μg i.v. injections and sampling was done either on experimental days 2 (after 3 doses) or 5 (after 6 doses) after the first injection on day 0. Abnormal clinical signs or mortality was not observed with the LMW HA derivatives with 500 μg doses. The LMW HA derivatives were also tested in combination with a single dose of pegfilgrastim (Neulasta™). In combinatorial G-CSF+LMW HA studies, pegfilgrastim was always injected s.c. at experimental day 0 and the LMW HA derivatives were administered i.v. as • a) single doses of 500 μg at experimental day 3, • b) single doses of 500 μg 1 or 4 hours before sampling, or • c) as repetitive doses of 500 μg daily from experimental day 0-5 (in total 6 doses).
Flow cytometric analysis was performed on FACSAria (Becton Dickinson Biosciences) with a 488-nm argon laser for (PE, FITC and PE-Cy7), a 633-nm hene laser for (APC and APC-Cy7). Fluorescense was measured using 530/30-nm (FITC), 585/42-nm (PE), 780/60-nm (PE-Cy7), 660/20-nm (APC) and 780/60 (APC-Cy7) bandpass filters.
Peripheral mouse blood was diluted 1:5 in 0.9% NaCl (Baxter). Fluorescence labels (ebiosciences, except APC-CD45 BD Biosciences): 0.04 μg phycoerythrin (PE)-conjugated CD11c (dendritic cells; clone N418; cat#12-0114), fluorescein isothiocyanate (FITC)-conjugated 0.3 μg TER-119 (erythroid cells; clone TER-119; cat#11-5921), 0.1 allophycocyanin (APC)-conjugated CD314 (natural killer cells; clone CX5; 17-5882), 0.08 μg APC-Cyanine 7 (Cy7)-conjugated CD3e (T cells; clone 17A2; cat#27.0032) and 0.04 μg PE-Cy7 conjugated CD45R (B cells; RA3-6B2; 25-0452) were combined in one tube and 0.08 μg PE-conjugated CD115 (for monocytes and macrophages; clone AFS98; cat#12-1152), 0.2 μg FITC-conjugated-CD41 (megakaryocytes and hematopoietic progenitors; clone MWReg30; cat#11-0411), 0.08 μg APC-conjugated CD45 (leukocytes; clone 30-F11; cat#559864) and 0.03 μg PE-Cy7-conjugated LY-6G (neutrophils; clone RB6-8C5; cat#25-5931) were combined in another tube, incubated for 30 minutes on ice protected from light. […]

[6] = tested on: SLAM+ cells (CD150+CD48−CD45+) in peripheral blood; experiment: SLAM immunophenotyping by flow cytometry; type: in vivo, C57BL/6J mice; settings: pegfilgrastim 25 μg s.c. day 0; combination + single 500 μg i.v. one hour before sampling (FIG. 14)
Protocol: as §1, with “No formal randomization or grouping was done. Animals were randomly allocated to the study groups. All animals were weighed before the first dosing and in the end of each study.” left out
The enrichment of long-term repopulating (LTR) hematopoietic stem cells was detected with representation of SLAM markers. […] CD45+ cells expressing CD150, but not CD48 cell surface markers were determined as a population highly enriched with LTR hematopoietic stem cells.
Although mobilization of HPCs may be of use for short-term repopulation in clinical settings, long-term repopulation and reconstitution of the hematopoietic cell system in a transplant recipient demands the presence of mobilized long-term repopulating hematopoietic stem cells (LTR-HSCs). […] The presence of SLAM (CD150+CD48−CD45+) positive cells in mouse blood was determined by flow cytometry after vehicle, pegfilgrastim or pegfilgrastim +6-O-S LMW HA dosing. […]

B1: pegfilgrastim (protein, chains of the INN, looked up)
chain: TPLGPASSLPQSFLLKCLEQVRKIQGDGAALQEKLCATYKLCHPEELVLLGHSLGIPWAPLSSCPSQALQLAGCLSQLHSGLFLYQGLLQALEGISPELGPTLDTLQLDVADFATTIWQQMEELGMAPALQPTQGAMPAFASAFQRRAGGVLVASHLQSFLEVSYRVLRHLAQP
modifications: N-terminal methionine, PEG
[1]; Neulasta 25 μg s.c. day 0, sampling day 5, combination: 500 μg i.v. 1 hour before sampling (FIG. 10A)
  mean CFU colonies: 18.8 colonies/10^5 mononuclear cells
[1]; single 25 μg s.c.
  time of peak of HPC mobilization after s.c. injection: 5 days
[1]; single 25 μg s.c. at day 0, samples at day 5, CFU, 1×10^5 mononuclear cells
  number of circulating HPCs in mouse peripheral blood, increase over background: 40-50 fold
[1]; single 25 μg s.c. injection (FIG. 9A)
  mobilization of circulating HPCs: robust mobilization of circulating HPCs
[2]
  number of HPCs in the bone marrow, decrease: over 2 fold
[3]
  WBC counts 5 days after single dose: remained high
[4]; 2 days
  numbers of mature RBC 2 days after s.c. injection: elevate the numbers of mature RBC
[4]; 5 days, occasionally seen (FIG. 4C)
  RBC elevation 5 days after s.c. injection: normalize back to control levels
spleen; 3 days (FIG. 8A left panel)
  spleen swelling 3 days after single s.c. injection: evident
spleen; two days
  spleen swelling two days after s.c. injection: evident
[5]; combination + 500 μg i.v. 1 hour before sampling (FIG. 11A), listed as G-CSF
  levels of circulating monocytes, neutrophils and eosinophils (MNEs) as a pool: robust increase; also recorded: dramatically increased
[5]; combination + 500 μg i.v. 1 hour before sampling (FIG. 11B)
  granulocytes within the MNEs: proliferated
[5]; combination + 500 μg i.v. 1 hour before sampling (FIG. 11C)
  levels of monocytes and macrophages as a pool: decreased
[5]; combination + 500 μg i.v. 1 hour before sampling (FIG. 12A)
  levels of CD45+CD115+ progenitors: increased
[5]; combination + 500 μg i.v. 1 hour before sampling (FIG. 12B)
  levels of CD45+CD41+ progenitors: decreased from control levels
[5]; combination + 500 μg i.v. 1 hour before sampling (FIG. 12C)
  levels of Ter-119+ proerythroblasts: decrease
[5]; combination + 500 μg i.v. 1 hour before sampling (FIG. 12D)
  levels of megakaryocytes and platelets: decreased levels of megakaryocytes and platelets
[5]; combination + 500 μg i.v. 1 hour before sampling (FIG. 13A)
  levels of peripheral blood lymphocytes: increased
[5]; combination + 500 μg i.v. 1 hour before sampling (FIG. 13B)
  CD3+ T-cells within the lymphocyte population: increase
[5]; combination + 500 μg i.v. 1 hour before sampling (FIG. 13C)
  NK (CD314+) cell levels: remained unaltered
[5]; combination + 500 μg i.v. 1 hour before sampling (FIG. 13D)
  CD45R+ B-cells within the lymphocyte population: decrease
[6]
  levels of circulating SLAM+ cells (CD150+CD48−CD45+): dramatically increased
